# Source: IntAct's records for PubMed 19037259
# B1: Vacuole morphology and inheritance protein 14 (Saccharomyces cerevisiae), Q06708 (parent)
# chain: MEKSIAKGLSDKLYEKRKAAALELEKLVKQCVLEGDYDRIDKIIDELCRDYAYALHQPMARNAGLMGLAATAIALGINDVGRYLRNILPPVLACFGDQNDQVRFYACESLYNIAKIAKGEILVYFNEIFDVLCKISADTENSVRGAAELLDRLIKDIVAERASNYISIVNNGSHGLLPAIKTDPISGDVYQEEYEQDNQLAFSLPKFIPLLTERIYAINPDTRVFLVDWLKVLLNTPGLELISYLPSFLGGLFTFLGDSHKDVRTVTHTLMDSLLHEVDRISKLQTEIKMKRLERLKMLEDKYNNSSTPTKKADGALIAEKKKTLMTALGGLSKPLSMETDDTKLSNTNETDDERHLTSQEQLLDSEATSQEPLRDGEEYIPGQDINLNFPEVITVLVNNLASSEAEIQLIALHWIQVILSISPNVFIPFLSKILSVLLKLLSDSDPHITEIAQLVNGQLLSLCSSYVGKETDGKIAYGPIVNSLTLQFFDSRIDAKIACLDWLILIYHKAPNQILKHNDSMFLTLLKSLSNRDSVLIEKALSLLQSLCSDSNDNYLRQFLQDLLTLFKRDTKLVKTRANFIMRQISSRLSPERVYKVISSILDNYNDTTFVKMMIQILSTNLITSPEMSSLRNKLRTCEDGMFFNSLFKSWCPNPVSVISLCFVAENYELAYTVLQTYANYELKLNDLVQLDILIQLFESPVFTRMRLQLLEQQKHPFLHKCLFGILMIIPQSKAFETLNRRLNSLNIWTSQSYVMNNYIRQRENSNFCDSNSDISQRSVSQSKLHFQELINHFKAVSEEDEYSSDMIRLDHGANNKSLLLGSFLDGIDEDKQEIVTPISPMNEAINEEMESPNDNSSVILKDSGSLPFNRNVSDKLKK
# partner: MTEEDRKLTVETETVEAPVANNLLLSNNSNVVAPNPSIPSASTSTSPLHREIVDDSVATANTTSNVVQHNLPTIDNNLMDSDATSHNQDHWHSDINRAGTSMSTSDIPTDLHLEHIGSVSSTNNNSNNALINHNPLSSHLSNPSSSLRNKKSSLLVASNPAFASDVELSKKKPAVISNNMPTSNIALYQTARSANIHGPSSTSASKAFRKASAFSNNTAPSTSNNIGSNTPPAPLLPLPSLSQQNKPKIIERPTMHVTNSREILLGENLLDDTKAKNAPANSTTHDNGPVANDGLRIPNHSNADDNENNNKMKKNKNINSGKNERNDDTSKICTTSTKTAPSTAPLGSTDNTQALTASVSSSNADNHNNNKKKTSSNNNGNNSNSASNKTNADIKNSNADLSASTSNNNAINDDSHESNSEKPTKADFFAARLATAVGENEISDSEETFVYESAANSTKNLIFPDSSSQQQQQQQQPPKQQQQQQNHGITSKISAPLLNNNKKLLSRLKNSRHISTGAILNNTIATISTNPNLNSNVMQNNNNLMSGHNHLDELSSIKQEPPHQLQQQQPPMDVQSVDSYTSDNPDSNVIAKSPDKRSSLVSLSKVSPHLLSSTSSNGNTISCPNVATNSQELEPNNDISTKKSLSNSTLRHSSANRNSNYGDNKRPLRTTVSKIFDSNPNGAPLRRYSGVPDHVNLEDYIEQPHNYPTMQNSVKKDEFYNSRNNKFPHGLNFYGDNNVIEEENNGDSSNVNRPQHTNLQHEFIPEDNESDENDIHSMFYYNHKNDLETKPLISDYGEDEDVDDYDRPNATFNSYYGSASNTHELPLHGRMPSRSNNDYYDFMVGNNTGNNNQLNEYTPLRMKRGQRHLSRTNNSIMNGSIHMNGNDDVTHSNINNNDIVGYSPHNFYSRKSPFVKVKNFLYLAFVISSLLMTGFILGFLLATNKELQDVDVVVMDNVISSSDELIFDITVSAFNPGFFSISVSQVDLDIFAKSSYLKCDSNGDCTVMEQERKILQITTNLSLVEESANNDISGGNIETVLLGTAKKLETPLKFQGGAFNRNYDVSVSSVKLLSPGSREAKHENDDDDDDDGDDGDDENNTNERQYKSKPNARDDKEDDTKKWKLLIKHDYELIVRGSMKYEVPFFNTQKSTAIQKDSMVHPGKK
# B2: Vacuole morphology and inheritance protein 14 (Saccharomyces cerevisiae), Q06708 (parent)
# chain: B1 chain
# partner: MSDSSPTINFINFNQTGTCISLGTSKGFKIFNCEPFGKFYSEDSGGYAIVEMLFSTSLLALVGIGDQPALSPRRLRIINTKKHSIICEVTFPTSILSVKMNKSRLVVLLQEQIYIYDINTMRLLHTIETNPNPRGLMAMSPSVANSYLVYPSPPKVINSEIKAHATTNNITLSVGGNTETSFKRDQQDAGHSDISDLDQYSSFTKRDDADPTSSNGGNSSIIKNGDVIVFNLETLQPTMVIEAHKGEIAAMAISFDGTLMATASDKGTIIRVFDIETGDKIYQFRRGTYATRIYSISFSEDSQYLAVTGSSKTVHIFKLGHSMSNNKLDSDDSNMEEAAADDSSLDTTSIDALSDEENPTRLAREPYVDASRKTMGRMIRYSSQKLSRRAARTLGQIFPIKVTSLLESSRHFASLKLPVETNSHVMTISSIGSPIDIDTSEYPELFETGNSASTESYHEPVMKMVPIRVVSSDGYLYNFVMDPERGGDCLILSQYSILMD
# B3: Protein VAC14 homolog (Homo sapiens), Q08AM6 (parent)
# chain: MNPEKDFAPLTPNIVRALNDKLYEKRKVAALEIEKLVREFVAQNNTVQIKHVIQTLSQEFALSQHPHSRKGGLIGLAACSIALGKDSGLYLKELIEPVLTCFNDADSRLRYYACEALYNIVKVARGAVLPHFNVLFDGLSKLAADPDPNVKSGSELLDRLLKDIVTESNKFDLVSFIPLLRERIYSNNQYARQFIISWILVLESVPDINLLDYLPEILDGLFQILGDNGKEIRKMCEVVLGEFLKEIKKNPSSVKFAEMANILVIHCQTTDDLIQLTAMCWMREFIQLAGRVMLPYSSGILTAVLPCLAYDDRKKSIKEVANVCNQSLMKLVTPEDDELDELRPGQRQAEPTPDDALPKQEGTASGGPDGSCDSSFSSGISVFTAASTERAPVTLHLDGIVQVLNCHLSDTAIGMMTRIAVLKWLYHLYIKTPRKMFRHTDSLFPILLQTLSDESDEVILKDLEVLAEIASSPAGQTDDPGPLDGPDLQASHSELQVPTPGRAGLLNTSGTKGLECSPSTPTMNSYFYKFMINLLKRFSSERKLLEVRGPFIIRQLCLLLNAENIFHSMADILLREEDLKFASTMVHALNTILLTSTELFQLRNQLKDLKTLESQNLFCCLYRSWCHNPVTTVSLCFLTQNYRHAYDLIQKFGDLEVTVDFLAEVDKLVQLIECPIFTYLRLQLLDVKNNPYLIKALYGLLMLLPQSSAFQLLSHRLQCVPNPELLQTEDSLKAAPKSQKADSPSIDYAELLQHFEKVQNKHLEVRHQRSGRGDHLDRRVVL
# B4: Vacuole morphology and inheritance protein 14 (Saccharomyces cerevisiae), Q06708 (parent)
# chain: B1 chain
# B5: Protein VAC14 homolog (Homo sapiens), Q08AM6 (parent)
# chain: B3 chain
# partner: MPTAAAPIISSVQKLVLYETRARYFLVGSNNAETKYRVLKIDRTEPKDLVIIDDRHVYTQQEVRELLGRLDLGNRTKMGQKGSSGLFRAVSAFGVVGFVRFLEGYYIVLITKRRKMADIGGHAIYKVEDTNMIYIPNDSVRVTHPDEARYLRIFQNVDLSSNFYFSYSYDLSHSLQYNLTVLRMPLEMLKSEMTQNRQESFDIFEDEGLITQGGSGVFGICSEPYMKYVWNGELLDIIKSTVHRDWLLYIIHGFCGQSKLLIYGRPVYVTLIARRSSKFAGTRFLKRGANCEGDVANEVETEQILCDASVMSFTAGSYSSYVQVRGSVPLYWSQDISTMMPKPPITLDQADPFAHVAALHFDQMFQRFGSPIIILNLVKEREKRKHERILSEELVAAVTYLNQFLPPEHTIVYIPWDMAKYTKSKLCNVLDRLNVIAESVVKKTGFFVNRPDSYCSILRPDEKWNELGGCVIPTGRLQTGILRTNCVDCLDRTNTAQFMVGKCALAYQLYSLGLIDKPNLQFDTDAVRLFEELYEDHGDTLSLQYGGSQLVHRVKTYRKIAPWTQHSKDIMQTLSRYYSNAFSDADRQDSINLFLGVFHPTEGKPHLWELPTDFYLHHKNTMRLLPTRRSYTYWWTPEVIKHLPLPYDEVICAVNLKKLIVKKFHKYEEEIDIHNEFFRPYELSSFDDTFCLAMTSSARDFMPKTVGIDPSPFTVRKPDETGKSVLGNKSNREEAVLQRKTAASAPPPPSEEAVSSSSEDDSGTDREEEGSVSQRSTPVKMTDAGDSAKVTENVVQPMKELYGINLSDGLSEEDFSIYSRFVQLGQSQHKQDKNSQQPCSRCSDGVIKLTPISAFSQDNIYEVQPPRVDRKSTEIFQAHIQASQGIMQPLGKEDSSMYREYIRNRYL
# Variants of: B1
# Conditions: with vac7_yeast VAC7, P53950
row,effect of a mutation on the interaction,Variant
1,disrupting interaction,L149R

# Variants of: B1
# Conditions: with vac7_yeast VAC7, P53950
# Remark: another data set of the same source
row,effect of a mutation on the interaction,Variant
1,disrupting interaction,R61K
2,disrupting interaction,Q101R
3,disrupting interaction,L329I
4,disrupting interaction,H56Y

# Variants of: B2
# Conditions: with atg18_yeast ATG18, P43601
row,effect of a mutation on the interaction,Variant
1,disrupting interaction,L149R

# Variants of: B2
# Conditions: with atg18_yeast ATG18, P43601
# Remark: another data set of the same source
row,effect of a mutation on the interaction,Variant
1,disrupting interaction,H56Y
2,disrupting interaction,Q101R
3,disrupting interaction,L329I
4,disrupting interaction,R61K

# Variants of: B3
# Conditions: with fyv1_human PIKFYVE
row,effect of a mutation on the interaction,Variant
1,disrupting interaction,L156R

# Variants of: B4
# Conditions: with fab1_yeast FAB1, P34756
# Chain of fab1_yeast FAB1, P34756 (P34756 whole entry): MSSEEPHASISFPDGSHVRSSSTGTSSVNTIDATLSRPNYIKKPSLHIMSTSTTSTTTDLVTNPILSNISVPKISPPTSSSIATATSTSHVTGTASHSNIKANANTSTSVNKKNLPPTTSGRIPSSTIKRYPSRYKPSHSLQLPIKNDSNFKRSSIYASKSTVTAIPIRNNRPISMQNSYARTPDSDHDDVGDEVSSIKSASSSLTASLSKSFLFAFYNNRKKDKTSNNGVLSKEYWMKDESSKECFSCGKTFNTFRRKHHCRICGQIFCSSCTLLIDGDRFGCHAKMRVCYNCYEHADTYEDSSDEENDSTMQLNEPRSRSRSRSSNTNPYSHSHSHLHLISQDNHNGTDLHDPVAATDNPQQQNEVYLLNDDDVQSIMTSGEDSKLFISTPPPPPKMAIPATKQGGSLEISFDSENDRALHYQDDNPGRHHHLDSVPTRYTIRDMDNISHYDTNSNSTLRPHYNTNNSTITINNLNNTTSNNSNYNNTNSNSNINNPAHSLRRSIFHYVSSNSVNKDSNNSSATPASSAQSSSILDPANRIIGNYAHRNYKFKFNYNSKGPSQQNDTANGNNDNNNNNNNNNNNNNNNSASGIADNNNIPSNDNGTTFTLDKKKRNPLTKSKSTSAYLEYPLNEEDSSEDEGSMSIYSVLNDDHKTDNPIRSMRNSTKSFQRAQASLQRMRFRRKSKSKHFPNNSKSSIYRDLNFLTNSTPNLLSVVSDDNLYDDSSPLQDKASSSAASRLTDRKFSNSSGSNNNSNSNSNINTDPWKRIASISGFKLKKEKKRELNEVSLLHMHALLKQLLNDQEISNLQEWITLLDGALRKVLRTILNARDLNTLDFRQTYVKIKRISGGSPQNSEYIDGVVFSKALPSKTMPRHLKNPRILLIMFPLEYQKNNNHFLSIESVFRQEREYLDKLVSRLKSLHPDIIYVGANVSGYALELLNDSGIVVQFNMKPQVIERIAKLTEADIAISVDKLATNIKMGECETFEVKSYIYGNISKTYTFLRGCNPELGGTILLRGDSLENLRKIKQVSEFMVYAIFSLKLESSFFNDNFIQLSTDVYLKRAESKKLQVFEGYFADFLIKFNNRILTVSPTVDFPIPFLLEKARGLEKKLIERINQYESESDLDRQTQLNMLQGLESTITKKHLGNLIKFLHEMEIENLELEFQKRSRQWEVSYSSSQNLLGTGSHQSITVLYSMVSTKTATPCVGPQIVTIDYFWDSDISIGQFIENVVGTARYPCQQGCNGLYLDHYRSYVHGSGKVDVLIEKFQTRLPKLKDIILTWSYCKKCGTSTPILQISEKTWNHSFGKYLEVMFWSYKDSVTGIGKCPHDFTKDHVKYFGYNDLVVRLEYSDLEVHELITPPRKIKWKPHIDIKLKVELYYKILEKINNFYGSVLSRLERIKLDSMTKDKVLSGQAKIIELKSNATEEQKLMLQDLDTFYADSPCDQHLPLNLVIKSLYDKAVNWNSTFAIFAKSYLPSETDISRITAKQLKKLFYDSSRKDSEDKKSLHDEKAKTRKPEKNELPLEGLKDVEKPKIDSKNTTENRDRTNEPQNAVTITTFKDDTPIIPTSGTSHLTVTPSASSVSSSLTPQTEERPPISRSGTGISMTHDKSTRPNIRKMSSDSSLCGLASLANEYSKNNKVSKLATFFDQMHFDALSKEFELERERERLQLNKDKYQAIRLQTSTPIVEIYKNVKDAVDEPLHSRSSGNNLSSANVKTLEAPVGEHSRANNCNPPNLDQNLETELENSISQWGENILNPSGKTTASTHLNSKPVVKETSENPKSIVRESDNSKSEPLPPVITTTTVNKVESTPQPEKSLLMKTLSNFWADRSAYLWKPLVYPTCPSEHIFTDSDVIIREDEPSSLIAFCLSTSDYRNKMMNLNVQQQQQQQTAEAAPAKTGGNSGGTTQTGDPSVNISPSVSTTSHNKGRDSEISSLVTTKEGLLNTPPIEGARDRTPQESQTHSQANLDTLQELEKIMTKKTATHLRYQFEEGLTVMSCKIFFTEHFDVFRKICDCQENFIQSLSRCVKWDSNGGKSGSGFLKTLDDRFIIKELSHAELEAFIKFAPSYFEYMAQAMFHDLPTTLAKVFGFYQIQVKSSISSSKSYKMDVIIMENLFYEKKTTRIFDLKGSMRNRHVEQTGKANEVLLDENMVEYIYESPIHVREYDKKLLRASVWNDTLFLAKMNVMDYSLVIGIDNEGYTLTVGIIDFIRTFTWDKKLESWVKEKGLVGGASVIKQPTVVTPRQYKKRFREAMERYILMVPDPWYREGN
row,effect of a mutation on the interaction,Variant
1,disrupting interaction,L149R

# Variants of: B5
# Conditions: with fig4_human FIG4, Q92562
row,effect of a mutation on the interaction,Variant
1,disrupting interaction,L156R
